{"source": "paper PMC1361615", "binders": {"B1": {"name": "25 bp unmethylated duplex, gel filtration (dsDNA)", "DNA 1": "GGCAGACACGGAATTCCACAGACGG", "DNA 2": "CCGTCTGTGGAATTCCGTGTCTGCC", "modifications": "none"}}, "target": "His-tagged M.RsrI (UniProt P14751 1-319)", "sequence (P14751 whole entry)": "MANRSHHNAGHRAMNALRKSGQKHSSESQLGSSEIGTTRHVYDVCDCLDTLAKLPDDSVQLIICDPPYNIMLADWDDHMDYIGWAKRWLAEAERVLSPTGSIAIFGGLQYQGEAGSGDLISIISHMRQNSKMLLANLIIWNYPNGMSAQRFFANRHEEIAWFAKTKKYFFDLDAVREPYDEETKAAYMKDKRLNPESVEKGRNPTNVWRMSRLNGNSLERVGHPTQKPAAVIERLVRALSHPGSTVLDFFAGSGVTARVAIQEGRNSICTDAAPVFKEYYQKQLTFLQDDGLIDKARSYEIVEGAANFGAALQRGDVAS", "test": "size-exclusion chromatography"}
{"binder": "B1", "values": [{"measurement": "binding result", "result": "binds"}]}
